Results from patent US20190248900A1.

What was measured:
[1] = target: human PD-1 (NM_005018.2) over-expressed on cells (human) (UniProt Q15116); assay: flow cytometry, 18 nM, panel 45D6
[2] = target: human PD-1 (NM_005018.2) over-expressed on cells (human) (UniProt Q15116); assay: flow cytometry, 18 nM, panel 49A2
ITGA6-Fc [3] = target: T1, ITGA6-Fc; assay: ELISA, 1 ug/ml
T1 sequence (P23229 whole entry, species assumed, looked up): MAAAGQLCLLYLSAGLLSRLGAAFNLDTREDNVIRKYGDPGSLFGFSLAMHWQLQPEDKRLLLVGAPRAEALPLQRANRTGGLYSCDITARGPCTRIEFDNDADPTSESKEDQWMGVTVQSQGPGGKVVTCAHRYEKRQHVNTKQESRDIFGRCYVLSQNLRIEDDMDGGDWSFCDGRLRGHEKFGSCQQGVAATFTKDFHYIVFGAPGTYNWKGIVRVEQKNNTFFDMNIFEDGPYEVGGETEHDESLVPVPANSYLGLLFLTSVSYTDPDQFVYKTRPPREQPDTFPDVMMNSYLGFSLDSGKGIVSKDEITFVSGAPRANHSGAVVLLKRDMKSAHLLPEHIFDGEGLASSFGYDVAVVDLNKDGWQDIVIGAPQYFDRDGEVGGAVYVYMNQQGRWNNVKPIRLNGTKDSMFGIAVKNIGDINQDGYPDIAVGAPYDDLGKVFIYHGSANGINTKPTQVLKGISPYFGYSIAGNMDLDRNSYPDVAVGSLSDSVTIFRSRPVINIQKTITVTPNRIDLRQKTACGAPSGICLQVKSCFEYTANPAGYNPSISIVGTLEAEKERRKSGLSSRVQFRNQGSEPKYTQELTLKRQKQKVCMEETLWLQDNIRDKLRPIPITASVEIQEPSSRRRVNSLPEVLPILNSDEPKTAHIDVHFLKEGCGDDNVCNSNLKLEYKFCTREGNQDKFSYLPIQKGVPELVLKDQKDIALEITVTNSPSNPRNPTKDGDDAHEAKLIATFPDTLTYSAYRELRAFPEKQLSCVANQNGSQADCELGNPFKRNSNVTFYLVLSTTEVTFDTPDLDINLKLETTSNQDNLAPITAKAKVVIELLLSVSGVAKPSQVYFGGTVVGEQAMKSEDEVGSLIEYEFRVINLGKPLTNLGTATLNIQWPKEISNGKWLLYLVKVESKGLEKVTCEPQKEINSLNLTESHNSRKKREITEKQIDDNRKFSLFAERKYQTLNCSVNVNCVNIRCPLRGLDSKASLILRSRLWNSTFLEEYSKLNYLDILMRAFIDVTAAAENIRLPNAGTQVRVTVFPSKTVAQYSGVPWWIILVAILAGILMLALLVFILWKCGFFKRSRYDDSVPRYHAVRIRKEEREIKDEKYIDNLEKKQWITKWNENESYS

ITGA6-Fc [4] = target: T1, ITGA6-Fc; assay: ELISA (control row)

Sequence of human PD-1 (NM_005018.2) over-expressed on cells (human) (Q15116 25-288): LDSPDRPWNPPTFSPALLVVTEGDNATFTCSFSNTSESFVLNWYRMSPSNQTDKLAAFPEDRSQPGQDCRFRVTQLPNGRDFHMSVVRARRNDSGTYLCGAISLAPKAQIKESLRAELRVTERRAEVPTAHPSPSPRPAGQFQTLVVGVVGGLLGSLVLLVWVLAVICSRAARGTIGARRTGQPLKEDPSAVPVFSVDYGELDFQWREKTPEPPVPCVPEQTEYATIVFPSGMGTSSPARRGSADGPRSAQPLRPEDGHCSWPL
Sequence of Pembrolizumab (antibody) (VH): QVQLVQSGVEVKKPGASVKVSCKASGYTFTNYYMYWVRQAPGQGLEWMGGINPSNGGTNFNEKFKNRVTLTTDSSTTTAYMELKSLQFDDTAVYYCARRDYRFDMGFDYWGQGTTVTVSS
Sequence of Pembrolizumab (antibody) (VL): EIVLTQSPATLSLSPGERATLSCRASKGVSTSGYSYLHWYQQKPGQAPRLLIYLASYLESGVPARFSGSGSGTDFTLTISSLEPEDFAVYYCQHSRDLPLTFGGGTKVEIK

Work on IgG (antibody) yielded a Geometric Mean [1] of 50 and a Geometric Mean [2] of 50.

In the case of Pembrolizumab (antibody), the OD490 (ITGA6-Fc [3]) is reported as 0.1 and the OD490 (ITGA6-Fc [4]) is reported as 0.1.

Nivolumab (antibody) was tested, and the OD490 (ITGA6-Fc [3]) was 0.3 and the OD490 (ITGA6-Fc [4]) was 0.3.
